Results on 16 molecules are retold here after patent publication US20210246166A1 (Bayer, published 2021).

Assay [1] deals with T1, recombinant human MASP1 active protease (amino acids 297-699, C-terminal His Tag) (human, UniProt P48740 297-699).
T1 sequence: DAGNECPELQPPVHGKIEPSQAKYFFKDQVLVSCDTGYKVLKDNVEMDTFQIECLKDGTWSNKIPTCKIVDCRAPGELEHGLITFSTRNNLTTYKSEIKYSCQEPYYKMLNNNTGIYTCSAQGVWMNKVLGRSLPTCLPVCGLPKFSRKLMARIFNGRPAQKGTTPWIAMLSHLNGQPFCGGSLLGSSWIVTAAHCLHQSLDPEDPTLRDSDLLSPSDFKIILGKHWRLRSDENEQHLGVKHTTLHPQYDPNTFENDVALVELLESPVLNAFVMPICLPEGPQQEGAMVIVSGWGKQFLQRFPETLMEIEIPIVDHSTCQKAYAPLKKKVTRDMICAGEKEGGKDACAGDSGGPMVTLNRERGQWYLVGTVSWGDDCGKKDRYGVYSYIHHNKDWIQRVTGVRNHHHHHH
The assay is described as follows: cell-based or functional assay.

Assay [2] concerns the target recombinant human MASP2 active protease (amino acids 297-686, C-terminal His Tag) (human, UniProt O00187 297-686). The assay is described as follows: cell-based or functional assay.

Bridge positions count the residues as written; N and C are the ends. Square brackets hold non-standard residues; d marks the D form. Ends that are not written are not given here. Oic = O=C(O)[C@@H]1C[C@@H]2CCCC[C@@H]2N1; Phe(2-Br) = N[C@@H](Cc1ccccc1Br)C(=O)O; NMeI = CC[C@H](C)[C@H](NC)C(=O)O; tBuAla = CC(C)(C)C[C@H](N)C(=O)O; Pen = CC(C)(S)[C@H](N)C(=O)O; NMeC = CN[C@@H](CS)C(=O)O; NMeA = CN[C@@H](C)C(=O)O; Sar = CNCC(=O)O

Sequence of recombinant human MASP2 active protease (amino acids 297-686, C-terminal His Tag) (O00187 other isoform, or with tags, fused parts or gaps limits assumed): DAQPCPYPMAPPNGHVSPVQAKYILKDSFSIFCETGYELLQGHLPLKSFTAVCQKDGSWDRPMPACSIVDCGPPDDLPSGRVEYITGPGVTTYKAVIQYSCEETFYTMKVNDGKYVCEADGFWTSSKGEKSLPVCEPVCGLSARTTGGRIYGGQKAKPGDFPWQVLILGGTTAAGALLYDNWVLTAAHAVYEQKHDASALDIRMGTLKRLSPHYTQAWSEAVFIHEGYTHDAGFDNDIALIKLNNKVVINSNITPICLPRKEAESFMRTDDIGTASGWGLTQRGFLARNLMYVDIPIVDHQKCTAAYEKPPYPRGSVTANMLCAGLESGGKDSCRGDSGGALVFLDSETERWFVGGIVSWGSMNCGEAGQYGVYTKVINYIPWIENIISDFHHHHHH

B1: AIC+SRSLP-(Oic)-I-(Pen)+IPE-OH (peptide)
peptide: AICSRSLP[Oic]I[Pen]IPE-OH
modifications: disulfide 3-11; N-terminus assumed
SMILES: CC[C@H](C)[C@H](NC(=O)[C@H](C)N)C(=O)N[C@H]1CSSC(C)(C)[C@@H](C(=O)N[C@H](C(=O)N2CCC[C@H]2C(=O)N[C@@H](CCC(=O)O)C(=O)O)[C@@H](C)CC)NC(=O)[C@H]([C@@H](C)CC)NC(=O)[C@@H]2C[C@@H]3CCCC[C@@H]3N2C(=O)[C@@H]2CCCN2C(=O)[C@H](CC(C)C)NC(=O)[C@H](CO)NC(=O)[C@H](CCCNC(=N)N)NC(=O)[C@H](CO)NC1=O
B1: the “human MASP1 IC50” value in assay [1] worked out at 2.9 nM. Further, the “human MASP2 IC50” value in assay [2] is 130 nM.

B2: AIC+SRS-((tBu)A)-P-(Oic)-I-(Pen)+IPD-NH2 (peptide)
peptide: AICSRS[tBuAla]P[Oic]I[Pen]IPD-NH2
modifications: disulfide 3-11; N-terminus assumed
SMILES: CC[C@H](C)[C@H](NC(=O)[C@H](C)N)C(=O)N[C@H]1CSSC(C)(C)[C@@H](C(=O)N[C@H](C(=O)N2CCC[C@H]2C(=O)N[C@@H](CC(=O)O)C(N)=O)[C@@H](C)CC)NC(=O)[C@H]([C@@H](C)CC)NC(=O)[C@@H]2C[C@@H]3CCCC[C@@H]3N2C(=O)[C@@H]2CCCN2C(=O)[C@H](CC(C)(C)C)NC(=O)[C@H](CO)NC(=O)[C@H](CCCNC(=N)N)NC(=O)[C@H](CO)NC1=O
Regarding B2, in assay [1], the “human MASP1 IC50” value came to 2.8 nM. Further, the “human MASP2 IC50” value in assay [2] was found to be 130 nM.

B3: PIC+SRS-((tBu)A)-PPI-(Pen)+IPD-NH2 (peptide)
peptide: PICSRS[tBuAla]PPI[Pen]IPD-NH2
modifications: disulfide 3-11; N-terminus assumed
SMILES: CC[C@H](C)[C@H](NC(=O)[C@@H]1CCCN1)C(=O)N[C@H]1CSSC(C)(C)[C@@H](C(=O)N[C@H](C(=O)N2CCC[C@H]2C(=O)N[C@@H](CC(=O)O)C(N)=O)[C@@H](C)CC)NC(=O)[C@H]([C@@H](C)CC)NC(=O)[C@@H]2CCCN2C(=O)[C@@H]2CCCN2C(=O)[C@H](CC(C)(C)C)NC(=O)[C@H](CO)NC(=O)[C@H](CCCNC(=N)N)NC(=O)[C@H](CO)NC1=O
For the molecule B3, the “human MASP1 IC50” value in assay [1] stood at 1.14 nM. Besides, in assay [2], the “human MASP2 IC50” value amounted to 50 nM.

B4: AIC+SRS-((tBu)A)-PPI-(Pen)+IPD-NH2 (peptide)
peptide: AICSRS[tBuAla]PPI[Pen]IPD-NH2
modifications: disulfide 3-11; N-terminus assumed
SMILES: CC[C@H](C)[C@H](NC(=O)[C@H](C)N)C(=O)N[C@H]1CSSC(C)(C)[C@@H](C(=O)N[C@H](C(=O)N2CCC[C@H]2C(=O)N[C@@H](CC(=O)O)C(N)=O)[C@@H](C)CC)NC(=O)[C@H]([C@@H](C)CC)NC(=O)[C@@H]2CCCN2C(=O)[C@@H]2CCCN2C(=O)[C@H](CC(C)(C)C)NC(=O)[C@H](CO)NC(=O)[C@H](CCCNC(=N)N)NC(=O)[C@H](CO)NC1=O
Regarding B4, the “human MASP1 IC50” value in assay [1] amounted to 2.6 nM. Besides, the “human MASP2 IC50” value in assay [2] is 83 nM.

B5: AIC+SRS-((2-Bromo)F)-PPI-(Pen)+IPD-NH2 (peptide)
peptide: AICSRS[Phe(2-Br)]PPI[Pen]IPD-NH2
modifications: disulfide 3-11; N-terminus assumed
SMILES: CC[C@H](C)[C@H](NC(=O)[C@H](C)N)C(=O)N[C@H]1CSSC(C)(C)[C@@H](C(=O)N[C@H](C(=O)N2CCC[C@H]2C(=O)N[C@@H](CC(=O)O)C(N)=O)[C@@H](C)CC)NC(=O)[C@H]([C@@H](C)CC)NC(=O)[C@@H]2CCCN2C(=O)[C@@H]2CCCN2C(=O)[C@H](Cc2ccccc2Br)NC(=O)[C@H](CO)NC(=O)[C@H](CCCNC(=N)N)NC(=O)[C@H](CO)NC1=O
Turning to B5, the “human MASP1 IC50” value in assay [1] amounted to 2.8 nM. For the same molecule, in assay [2], the “human MASP2 IC50” value is 48 nM.

B6: ((N-Me)G)-IC+SRSLP-(Oic)-I-(Pen)+IP-NH2 (peptide)
peptide: [Sar]ICSRSLP[Oic]I[Pen]IP-NH2
modifications: disulfide 3-11; also: TFA salt
In the case of B6, the “human MASP1 IC50” value in assay [1] was determined as 2.9 nM. For the same molecule, the “human MASP2 IC50” value in assay [2] was 69.6 nM.

B7: AIC+SRS-((tBu)A)-PP-((2S)-2-(Amino)-2-[(1S,3R)-3-hydroxycyclohexyl]acetic acid)-((N-Me)C)+IPD-NH2 (peptide)
peptide: AICSRS[tBuAla]PP[(2S)‑2‑(Amino)‑2‑((1S,3R)-3-hydroxycyclohexyl)acetic acid][NMeC]IPD-NH2
modifications: disulfide 3-11
Regarding B7, the “human MASP1 IC50” value in assay [1] stood at 3 nM. The “human MASP2 IC50” value in assay [2] was found to be 330 nM.

B8: SIC+SRS-((tBu)A)-PPI-((N-Me)C)+I-NH2 (peptide)
peptide: SICSRS[tBuAla]PPI[NMeC]I-NH2
modifications: disulfide 3-11; N-terminus assumed
SMILES: CC[C@H](C)[C@H](NC(=O)[C@@H]1CSSC[C@H](NC(=O)[C@@H](NC(=O)[C@@H](N)CO)[C@@H](C)CC)C(=O)N[C@@H](CO)C(=O)N[C@@H](CCCNC(=N)N)C(=O)N[C@@H](CO)C(=O)N[C@@H](CC(C)(C)C)C(=O)N2CCC[C@H]2C(=O)N2CCC[C@H]2C(=O)N[C@@H]([C@@H](C)CC)C(=O)N1C)C(N)=O
On to B8, for which, in assay [1], the “human MASP1 IC50” value is 2.8 nM. The “human MASP2 IC50” value in assay [2] stood at 230 nM.

B9: ((N-Me)G)-IC+SRSLP-(Oic)-I-(Pen)+IP-(PEG4-CH2CO2H (15 atoms))-NH2 (peptide)
peptide: [Sar]ICSRSLP[Oic]I[Pen]IP[PEG4‑CH2CO2H (15 atoms)]-NH2
modifications: disulfide 3-11
On to B9, for which the “human MASP1 IC50” value in assay [1] was found to be 2.9 nM. The “human MASP2 IC50” value in assay [2] came out at 89 nM.

B10: AIC+SRSLP-(rel-(1R,3R,5R,6R)-6-(Trifluoromethyl)-2-azabicyclo[3.1.0]hexane-3-carboxylic acid)-IC+IPD-NH2 (peptide)
peptide: AICSRSLP[rel‑(1R,3R,5R,6R)‑6‑(Trifluoromethyl)‑2‑azabicyclo(3.1.0)hexane‑3‑carboxylic acid]ICIPD-NH2
modifications: disulfide 3-11
Turning to B10, in assay [1], the “human MASP1 IC50” value was 2.8 nM. Moreover, the “human MASP2 IC50” value in assay [2] turned out to be 2800 nM.

B11: ((N-Me)G)-((N-Me)I)-C+SRS-((tBu)A)-PPI-(Pen)+I-NH2 (peptide)
peptide: [Sar][NMeI]CSRS[tBuAla]PPI[Pen]I-NH2
modifications: disulfide 3-11; N-terminus assumed
SMILES: CC[C@H](C)[C@H](NC(=O)[C@H]1NC(=O)[C@H]([C@@H](C)CC)NC(=O)[C@@H]2CCCN2C(=O)[C@@H]2CCCN2C(=O)[C@H](CC(C)(C)C)NC(=O)[C@H](CO)NC(=O)[C@H](CCCNC(=N)N)NC(=O)[C@H](CO)NC(=O)[C@@H](NC(=O)[C@H]([C@@H](C)CC)N(C)C(=O)CNC)CSSC1(C)C)C(N)=O
As for B11, the “human MASP1 IC50” value in assay [1] came out at 2.7 nM. Moreover, the “human MASP2 IC50” value in assay [2] came to 320 nM.

B12: ((N-Me)A)-IC+SRSLP-(Oic)-I-(Pen)+IP-OH (peptide)
peptide: [NMeA]ICSRSLP[Oic]I[Pen]IP-OH
modifications: disulfide 3-11; N-terminus assumed
SMILES: CC[C@H](C)[C@H](NC(=O)[C@H](C)NC)C(=O)N[C@H]1CSSC(C)(C)[C@@H](C(=O)N[C@H](C(=O)N2CCC[C@H]2C(=O)O)[C@@H](C)CC)NC(=O)[C@H]([C@@H](C)CC)NC(=O)[C@@H]2C[C@@H]3CCCC[C@@H]3N2C(=O)[C@@H]2CCCN2C(=O)[C@H](CC(C)C)NC(=O)[C@H](CO)NC(=O)[C@H](CCCNC(=N)N)NC(=O)[C@H](CO)NC1=O
With B12, the “human MASP1 IC50” value in assay [1] was 2.9 nM. The “human MASP2 IC50” value in assay [2] is 200 nM.

B13: AIC+SRSLP-(Oic)-I-(Pen)+IP-OH (peptide)
peptide: AICSRSLP[Oic]I[Pen]IP-OH
modifications: disulfide 3-11; N-terminus assumed
SMILES: CC[C@H](C)[C@H](NC(=O)[C@H](C)N)C(=O)N[C@H]1CSSC(C)(C)[C@@H](C(=O)N[C@H](C(=O)N2CCC[C@H]2C(=O)O)[C@@H](C)CC)NC(=O)[C@H]([C@@H](C)CC)NC(=O)[C@@H]2C[C@@H]3CCCC[C@@H]3N2C(=O)[C@@H]2CCCN2C(=O)[C@H](CC(C)C)NC(=O)[C@H](CO)NC(=O)[C@H](CCCNC(=N)N)NC(=O)[C@H](CO)NC1=O
Take B13: in assay [1], the “human MASP1 IC50” value was found to be 2.9 nM. In assay [2], the “human MASP2 IC50” value was 160 nM.

B14: AIC+SRSLP-(Oic)-I-(Pen)+I-OH (peptide)
peptide: AICSRSLP[Oic]I[Pen]I-OH
modifications: disulfide 3-11; N-terminus assumed
SMILES: CC[C@H](C)[C@H](NC(=O)[C@H]1NC(=O)[C@H]([C@@H](C)CC)NC(=O)[C@@H]2C[C@@H]3CCCC[C@@H]3N2C(=O)[C@@H]2CCCN2C(=O)[C@H](CC(C)C)NC(=O)[C@H](CO)NC(=O)[C@H](CCCNC(=N)N)NC(=O)[C@H](CO)NC(=O)[C@@H](NC(=O)[C@@H](NC(=O)[C@H](C)N)[C@@H](C)CC)CSSC1(C)C)C(=O)O
B14: the “human MASP1 IC50” value in assay [1] worked out at 3 nM. Besides, in assay [2], the “human MASP2 IC50” value was determined as 360 nM.

B15: ((N-Me)A)-IC+SRSLP-(Oic)-I-(Pen)+IPD-NH2 (peptide)
peptide: [NMeA]ICSRSLP[Oic]I[Pen]IPD-NH2
modifications: disulfide 3-11; N-terminus assumed
SMILES: CC[C@H](C)[C@H](NC(=O)[C@H](C)NC)C(=O)N[C@H]1CSSC(C)(C)[C@@H](C(=O)N[C@H](C(=O)N2CCC[C@H]2C(=O)N[C@@H](CC(=O)O)C(N)=O)[C@@H](C)CC)NC(=O)[C@H]([C@@H](C)CC)NC(=O)[C@@H]2C[C@@H]3CCCC[C@@H]3N2C(=O)[C@@H]2CCCN2C(=O)[C@H](CC(C)C)NC(=O)[C@H](CO)NC(=O)[C@H](CCCNC(=N)N)NC(=O)[C@H](CO)NC1=O
As for B15, the “human MASP1 IC50” value in assay [1] amounted to 2.8 nM. For the same molecule, the “human MASP2 IC50” value in assay [2] was 145 nM.

B16: AIC+SRSLP-(Oic)-I-(Pen)+IPE-NH2 (peptide)
peptide: AICSRSLP[Oic]I[Pen]IPE-NH2
modifications: disulfide 3-11; N-terminus assumed
SMILES: CC[C@H](C)[C@H](NC(=O)[C@H](C)N)C(=O)N[C@H]1CSSC(C)(C)[C@@H](C(=O)N[C@H](C(=O)N2CCC[C@H]2C(=O)N[C@@H](CCC(=O)O)C(N)=O)[C@@H](C)CC)NC(=O)[C@H]([C@@H](C)CC)NC(=O)[C@@H]2C[C@@H]3CCCC[C@@H]3N2C(=O)[C@@H]2CCCN2C(=O)[C@H](CC(C)C)NC(=O)[C@H](CO)NC(=O)[C@H](CCCNC(=N)N)NC(=O)[C@H](CO)NC1=O
For B16, the “human MASP1 IC50” value in assay [1] amounted to 2.8 nM. Moreover, the “human MASP2 IC50” value in assay [2] was 150 nM.
